From PMC10368727, “Sequestration of histidine kinases by non-cognate response regulators establishes a threshold level of stimulation for bacterial two-component signaling” (Nature Communications, 2023)
Read-outs that look alike come from different tables or passages of the source.

B3: GFP-tagged MtrB, unphosphorylated (cytosolic catalytic domain) (domain or fragment)
chain: SRQVVVPVRSASRIAERFAEGHLSERMPVRGEDDMARLAVSFNDMAESLSRQIAQLEEFGNLQRRFTSDVSHELRTPLTTVRMAADLIYDHSADLDPTLRRSTELMVSELDRFETLLNDLLEISRHDAGVAELSVEAVDLRTTVNNALGNVGHLAEEAGIELLVDLPAEQVIAEVDARRVERILRNLIANAIDHAEHKPVRIRMAADEDTVAVTVRDYGVGLRPGEEKLVFSRFWRSDPSRVRRSGGTGLGLAISVEDARLHQGRLEAWGEPGEGACFRLTLPMVRGHKVTTSPLPMKPIPQPVLQPVAQPNPQPMPPEYKERQRPREHAEWSG
notes: also called MtrB-GFP
B4: phosphorylated, GFP-tagged HK MtrB (cytosolic catalytic domain) (domain or fragment)
chain: SRQVVVPVRSASRIAERFAEGHLSERMPVRGEDDMARLAVSFNDMAESLSRQIAQLEEFGNLQRRFTSDVSHELRTPLTTVRMAADLIYDHSADLDPTLRRSTELMVSELDRFETLLNDLLEISRHDAGVAELSVEAVDLRTTVNNALGNVGHLAEEAGIELLVDLPAEQVIAEVDARRVERILRNLIANAIDHAEHKPVRIRMAADEDTVAVTVRDYGVGLRPGEEKLVFSRFWRSDPSRVRRSGGTGLGLAISVEDARLHQGRLEAWGEPGEGACFRLTLPMVRGHKVTTSPLPMKPIPQPVLQPVAQPNPQPMPPEYKERQRPREHAEWSG
notes: also called MtrB~P; P~MtrB-GFP
B9: response regulator NarL (natural protein)
chain: MSNPQPEKVRVVVGDDHPLFREGVVRALSLSGSVNVVGEADDGAAALELIKAHLPDVALLDYRMPGMDGAQVAAAVRSYELPTRVLLISAHDEPAIVYQALQQGAAGFLLKDSTRTEIVKAVLDCAKGRDVVAPSLVGGLAGEIRQRAAPVAPVLSAREREVLNRIACGQSIPAIAAELYVAPSTVKTHVQRLYEKLGVSDRAAAVAEAMRQRLLD
notes: also called non-cognate RR NarL
B11: phosphorylated, GFP-tagged HK PhoR (cytosolic catalytic domain) (domain or fragment)
chain: RRSLRPLAEFEQTAAAIGAGQLDRRVPQWHPRTEVGRLSLALNGMLAQIQRAVASAESSAEKARDSEDRMRQFITDASHELRTPLTTIRGFAELYRQGAARDVGMLLSRIESEASRMGLLVDDLLLLARLDAHRPLELCRVDLLALASDAAHDARAMDPKRRITLEVLDGPGTPEVLGDESRLRQVLRNLVANAIQHTPESADVTVRVGTEGDDAILEVADDGPGMSQEDALRVFERFYRADSSRARASGGTGLGLSIVDSLVAAHGGAVTVTTALGEGCCFRVSLPRVSDVDQLSLTPVVPGPP
notes: also called PhoR-GFP; PhoR~P

Assays:
Settings in all cases: both partners purified
[1] = biological target: B4; assay: MST
[2] = biological target: B11
[3] = biological target: B3; assay: MST; GFP-tagged MtrB in the unphosphorylated state titrated with RR
response regulator PhoP [4] = biological target: T1, response regulator PhoP (M. tuberculosis, UniProt P71814 1-247); assay: as above
response regulator PhoP [5] = biological target: T1, response regulator PhoP
response regulator DevR = response regulator DevR (M. tuberculosis, UniProt P9WMF9 1-217); assay: MST
response regulator DevR, sequence (P9WMF9 whole entry): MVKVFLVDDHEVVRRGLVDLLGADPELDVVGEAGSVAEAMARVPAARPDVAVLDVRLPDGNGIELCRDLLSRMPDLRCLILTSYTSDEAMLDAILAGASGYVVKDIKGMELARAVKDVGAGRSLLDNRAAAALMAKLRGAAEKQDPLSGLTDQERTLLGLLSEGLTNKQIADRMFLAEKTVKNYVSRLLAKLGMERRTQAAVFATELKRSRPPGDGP

response regulator NarL = biological target: B9; assay: MST
[6] = biological target: T2, phosphorylated, histidine tag labeled HK PrrB (cytosolic catalytic domain) (M. tuberculosis, UniProt P9WGK7 172-446); assay: MST
T2 construct: also called PrrB~P
T2 sequence: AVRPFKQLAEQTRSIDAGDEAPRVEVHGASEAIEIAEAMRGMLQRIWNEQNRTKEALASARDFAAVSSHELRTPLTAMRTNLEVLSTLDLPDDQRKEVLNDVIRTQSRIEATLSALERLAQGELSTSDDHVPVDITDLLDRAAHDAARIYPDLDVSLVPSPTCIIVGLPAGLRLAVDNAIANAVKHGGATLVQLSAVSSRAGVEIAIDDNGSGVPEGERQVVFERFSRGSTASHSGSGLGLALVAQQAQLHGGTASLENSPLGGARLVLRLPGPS

[7] = biological target: T3, phosphorylated, histidine tag labeled HK KdpD (cytosolic catalytic domain) (M. tuberculosis, UniProt P9WGL3 532-860); assay: MST
T3 construct: also called KdpD~P
T3 sequence: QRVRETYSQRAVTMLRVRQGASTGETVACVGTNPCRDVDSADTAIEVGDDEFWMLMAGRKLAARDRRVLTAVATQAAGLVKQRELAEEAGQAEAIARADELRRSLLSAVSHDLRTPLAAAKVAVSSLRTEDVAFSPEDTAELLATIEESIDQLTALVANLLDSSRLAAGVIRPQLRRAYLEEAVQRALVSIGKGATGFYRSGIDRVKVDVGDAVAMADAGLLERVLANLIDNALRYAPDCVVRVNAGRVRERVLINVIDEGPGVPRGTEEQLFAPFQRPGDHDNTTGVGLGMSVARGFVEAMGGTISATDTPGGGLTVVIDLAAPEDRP

B1: response regulator TcrA (natural protein)
chain: MADETTMRAGRGPGRACGRVSGVRILVVEDEPKMTALLARALTEEGHTVDTVADGRHAVAAVDGGDYDAVVLDVMLPGIDGFEVCARLRRQRVWTPVLMLTARGAVTDRIAGLDGGADDYLTKPFNLDELFARLRALSRRGPIPRPPTLEAGDLRLDPSEHRVWRADTEIRLSHKEFTLLEALIRRPGIVHTRAQLLERCWDAAYEARSNIVDVYIRYLRDKIDRPFGVTSLETIRGAGYRLRKDGGRHALPR
In the case of B1, the Kd [1] is reported as 3070 ± 74 nM and the Kd [2] is reported as 1830 nM.

B2: response regulator MtrA (natural protein)
chain: MDTMRQRILVVDDDASLAEMLTIVLRGEGFDTAVIGDGTQALTAVRELRPDLVLLDLMLPGMNGIDVCRVLRADSGVPIVMLTAKTDTVDVVLGLESGADDYIMKPFKPKELVARVRARLRRNDDEPAEMLSIADVEIDVPAHKVTRNGEQISLTPLEFDLLVALARKPRQVFTRDVLLEQVWGYRHPADTRLVNVHVQRLRAKVEKDPENPTVVLTVRGVGYKAGPP
notes: also called cognate RR MtrA
In the case of B2, the Kd [1] is reported as 444 ± 117 nM and the Kd [3] is reported as 936 ± 113 nM.

With B3 the Kd (response regulator PhoP [4]) was 18100 ± 2740 nM.

In the case of B4, the Kd (response regulator PhoP [5]) is reported as 3580 ± 121 nM.

B5: phosphorylated, histidine tag labeled HK DevS (cytosolic catalytic domain) (domain or fragment)
chain: LATSQRRMRELDVLTDRDRIARDLHDHVIQRLFAIGLALQGAVPHERNPEVQQRLSDVVDDLQDVIQEIRTTIYDLHGASQGITRLRQRIDAAVAQFADSGLRTSVQFVGPLSVVDSALADQAEAVVREAVSNAVRHAKASTLTVRVKVDDDLCIEVTDNGRGLPDEFTGSGLTNLRQRAEQAGGEFTLASVPGASGTVLRWSAPLSQ
notes: also called DevS~P
Binder B5 has a Kd (response regulator DevR) of 13200 nM and a Kd (response regulator NarL) of 325 nM.

B6: response regulator PrrA (natural protein)
chain: MDTGVTSPRVLVVDDDSDVLASLERGLRLSGFEVATAVDGAEALRSATENRPDAIVLDINMPVLDGVSVVTALRAMDNDVPVCVLSARSSVDDRVAGLEAGADDYLVKPFVLAELVARVKALLRRRGSTATSSSETITVGPLEVDIPGRRARVNGVDVDLTKREFDLLAVLAEHKTAVLSRAQLLELVWGYDFAADTNVVDVFIGYLRRKLEAGGGPRLLHTVRGVGFVLRMQ
B6 showed a Kd [6] of 4310 nM.

B7: response regulator KdpE (natural protein)
chain: MTLVLVIDDEPQILRALRINLTVRGYQVITASTGAGALRAAAEHPPDVVILDLGLPDMSGIDVLGGLRGWLTAPVIVLSARTDSSDKVQALDAGADDYVTKPFGMDEFLARLRAAVRRNTAAAELEQPVIETDSFTVDLAGKKVIKDGAEVHLTPTEWGMLEMLARNRGKLVGRGELLKEVWGPAYATETHYLRVYLAQLRRKLEDDPSHPKHLLTESGMGYRFEA
Binder B7 has a Kd [7] of 4490 nM and a Kd [1] of 868 ± 100 nM.

B8: response regulator MprA (natural protein)
chain: MSVRILVVDDDRAVRESLRRSLSFNGYSVELAHDGVEALDMIASDRPDALVLDVMMPRLDGLEVCRQLRGTGDDLPILVLTARDSVSERVAGLDAGADDYLPKPFALEELLARMRALLRRTKPEDAAESMAMRFSDLTLDPVTREVNRGQRRISLTRTEFALLEMLIANPRRVLTRSRILEEVWGFDFPTSGNALEVYVGYLRRKTEADGEPRLIHTVRGVGYVLRETPP
Binder B8 has a Kd [6] of 1960 nM.

In the case of B9, the Kd [7] is reported as 355 nM, the Kd [1] is reported as 83 ± 15 nM and the Kd [3] is reported as 402 ± 58 nM.

B10: response regulator TcrX (natural protein)
chain: MRRADGQPVTVLVVDDEPVLAEMVSMALRYEGWNITTAGDGSSAIAAARRQRPDVVVLDVMLPDMSGLDVLHKLRSENPGLPVLLLTAKDAVEDRIAGLTAGGDDYVTKPFSIEEVVLRLRALLRRTGVTTVDSGAQLVVGDLVLDEDSHEVMRAGEPVSLTSTEFELLRFMMHNSKRVLSKAQILDRVWSYDFGGRSNIVELYISYLRKKIDNGREPMIHTLRGAGYVLKPAR
With B10 the Kd [1] was 82 ± 12 nM, the Kd [2] was 484 nM and the Kd [3] was 21700 ± 5020 nM.

Binder B11 has a Kd (response regulator PhoP [5]) of 1480 nM.
